Measurements from patent US20260242497A1 (VIAL HEALTH TECHNOLOGY, published 2026).

Columns and labels:
human FcRn [1] = biological target: T1, human FcRn (human, UniProt P55899 24-297; P61769 21-119); assay: SPR, Biacore 8K, CM5 chip, antibody immobilised, human FcRn as analyte, pH 6.0
T1 construct: also called neonatal Fc receptor
Method: (§1) The 1×PBST running buffer was prepared at both pH 6.0 and pH 7.4. Kinetic measurements were obtained for association and dissociation times of 60 and 90 seconds, respectively, at a flow rate of 30 μL/min. The CM5 chips were regenerated with 1×PBS (pH 7.4). Kinetic parameters for the concentration series at both pHs were fit to a steady state affinity model and averaged using the Biacore Evaluation Software. Each concentration series was fit independently to obtain the average rates and binding affinities.
SPR analysis was performed using a Bioacore 8K instrument and a CM5 with the antibody immobilized at 10 g/mL concentration, as above.

human FcRn [2] = biological target: T1, human FcRn; assay: SPR, Biacore 8K, CM5 chip, antibody immobilised, human FcRn as analyte, pH 6.0, steady-state affinity fit
Method: as §1

T1 sequence (P55899 24-297 limits assumed, chain 1 of 2): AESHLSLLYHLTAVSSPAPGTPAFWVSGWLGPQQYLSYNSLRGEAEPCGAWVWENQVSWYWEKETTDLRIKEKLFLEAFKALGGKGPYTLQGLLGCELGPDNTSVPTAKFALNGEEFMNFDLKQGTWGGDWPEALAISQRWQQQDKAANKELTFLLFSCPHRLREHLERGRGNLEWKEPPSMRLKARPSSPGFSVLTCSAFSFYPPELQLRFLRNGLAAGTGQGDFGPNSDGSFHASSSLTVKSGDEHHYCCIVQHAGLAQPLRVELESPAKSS
T1 sequence (P61769 21-119 limits assumed, chain 2 of 2): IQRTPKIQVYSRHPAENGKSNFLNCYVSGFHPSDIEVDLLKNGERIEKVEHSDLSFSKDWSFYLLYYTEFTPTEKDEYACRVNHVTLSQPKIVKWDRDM

| Binder | Fold Increase (FI) relative to Rituximab (human FcRn [1]) [fold] | Kd (human FcRn [1]) [nM] | Fold Increase (FI) relative to RVT-3101 (human FcRn [2]) [fold] | Kd (human FcRn [2]) [nM] |
| --- | --- | --- | --- | --- |
| AB_IL1b_02_003_HL9 (antibody, human IgG4 S228P, kappa, F234A L235A, Anti-IL1β antibody with Q311R, M428L, H433K, N434F) heavy: EVQLVESGGGLVQPGGSLRLSCAASGFTFSDHYMSWIRQAPGKGLEWVSYISSSGSTIYYADSVKGRFTISRDNAKNSLYLQMNSLRAEDTAVYYCAREYDSSGYYYVGVDFWGQGTLVTVSSASTKGPSVFPLAPCSRSTSESTAALGCLVKDYFPEPVTVSWNSGALTSGVHTFPAVLQSSGLYSLSSVVTVPSSSLGTKTYTCNVDHKPSNTKVDKRVESKYGPPCPPCPAPEAAGGPSVFLFPPKPKDTLMISRTPEVTCVVVDVSQEDPEVQFNWYVDGVEVHNAKTKPREEQFNSTYRVVSVLTVLHRDWLNGKEYKCKVSNKGLPSSIEKTISKAKGQPREPQVYTLPPSQEEMTKNQVSLTCLVKGFYPSDIAVEWESNGQPENNYKTTPPVLDSDGSFFLYSRLTVDKSRWQEGNVFSCSVLHEALKFHYTQKSLSLSLG light: not shown | 50.4 | 42.3 | – | – |
| AB_IL15_AI_02_077_HL9 (antibody, human IgG1, kappa, L234A L235A, Anti-IL15 antibody with Q311R, M428L, H433K, N434F) heavy: EVQLVESGGGLVQPGGSLRLSCAASEFTFSNYAMSWVRQAPGKGLEWVATISRGGDYHYYPDSVKGRFTISRDNSKNTLYLQMNSLRAEDTAVYYCARRVSMITGGWAHDYWGQGTLVTVSSASTKGPSVFPLAPSSKSTSGGTAALGCLVKDYFPEPVTVSWNSGALTSGVHTFPAVLQSSGLYSLSSVVTVPSSSLGTQTYICNVNHKPSNTKVDKRVEPKSCDKTHTCPPCPAPEAAGGPSVFLFPPKPKDTLMISRTPEVTCVVVDVSHEDPEVKFNWYVDGVEVHNAKTKPREEQYNSTYRVVSVLTVLHRDWLNGKEYKCKVSNKALPAPIEKTISKAKGQPREPQVYTLPPSREEMTKNQVSLTCLVKGFYPSDIAVEWESNGQPENNYKTTPPVLDSDGSFFLYSKLTVDKSRWQQGNVFSCSVLHEALKFHYTQKSLSLSPGK light: DVVMTQSPLSLPVTLGQPASISCRSSQSIVDITGNTYLEWYQQRPGQSPRLLIYKVFNRFSGVPDRFSGSGSGTDFTLKISRVEAEDVGVYYCFQDSFVPYTFGQGTKLEIKRTVAAPSVFIFPPSDEQLKSGTASVVCLLNNFYPREAKVQWKVDNALQSGNSQESVTEQDSKDSTYSLSSTLTLSKADYEKHKVYACEVTHQGLSSPVTKSFNRGEC | 38.1 | 55.9 | – | – |
| AB_IL13_TSLP_BsAb_ISTF_003 (bispecific antibody) chain 1: EVQLVQSGAEVKKPGSSVKVSCKASGYTFSNYLIEWVRQAPGQGLEWIGVIDPGVGDTNYNENFKGRATLTADKSTSTAYIELSSLRSEDTAVYYCAREDNPGTAFDYWGQGTTVTVSSASTKGPSVFPLAPSSKSTSGGTAALGCLVKDYFPEPVTVSWNSGALTSGVHTFPAVLQSSGLYSLSSVVTVPSSSLGTQTYICNVNHKPSNTKVDKRVEPKSCDKTHTCPPCPAPEAAGGPSVFLFPPKPKDTLMISRTPEVTCVVVDVSHEDPEVKFNWYVDGVEVHNAKTKPREEQYNSTYRVVSVLTVLHQDWLNGKEYKCKVSNKALPAPIEKTISKAKGQPREPQVYTLPPCREEMTKNQVSLWCLVKGFYPSDIAVEWESNGQPENNYKTTPPVLDSDGSFFLYSKLTVDKSRWQQGNVFSCSVLHEALHSHYTQKSLSLSPGK chain 2: SIVMTQTPLSLSVTPGQPASISCKASQSVSSDVTWYLQKPGQSPQLLIYYVSEHYTGVPDRFSGSGYGTDFTLKISRVEAEDVGVYYCQQHHRFPLTFGQGTKLEIKRTVAAPSVFIFPPSDEQLKSGTASVVCLLNNFYPREAKVQWKVDNALQSGNSQESVTEQDSKDSTYSLSSTLTLSKADYEKHKVYACEVTHQGLSSPVTKSFNRGEC chain 3: DIQLTQSPSSLSASVGDRVTITCRASKSVDSYGNSFMHWYQQKPGKAPKLLIYLASNLESGVPSRFSGSGSGTDFTLTISSLQPEDFATYYCQQNNEDPRTFGCGTKVEIKGGGGSGGGGSGGGGSGGGGSEVQLQESGPGLVKPSETLSLTCTVSGFSLNAYSVNWIRQPPGKCLEWLGMIWGDGKIVYNSALKSRLTISKDSSKNQVSLKLSSVTAADTAVYYCAGDGYYPYAMRNWGQGTTVTVSSEPKSSDKTHTCPPCPAPEAAGGPSVFLFPPKPKDTLMISRTPEVTCVVVDVSHEDPEVKFNWYVDGVEVHNAKTKPREEQYNSTYRVVSVLTVLHQDWLNGKEYKCKVSNKALPAPIEKTISKAKGQPREPQVCTLPPSREEMTKNQVSLSCAVKGFYPSDIAVEWESNGQPENNYKTTPPVLDSDGSFFLVSKLTVDKSRWQQGNVFSCSVLHEALHSHYTQKSLSLSPGK | 20.7 | 103 | – | – |
| AB_IL13_TSLP_BsAb_ISTF_003_HL9 (bispecific antibody, human IgG1, kappa, L234A L235A, Anti-TSLP Fab arm (HC + LC) and anti-IL13 scFv-Fc arm) heavy: EVQLVQSGAEVKKPGSSVKVSCKASGYTFSNYLIEWVRQAPGQGLEWIGVIDPGVGDTNYNENFKGRATLTADKSTSTAYIELSSLRSEDTAVYYCAREDNPGTAFDYWGQGTTVTVSSASTKGPSVFPLAPSSKSTSGGTAALGCLVKDYFPEPVTVSWNSGALTSGVHTFPAVLQSSGLYSLSSVVTVPSSSLGTQTYICNVNHKPSNTKVDKRVEPKSCDKTHTCPPCPAPEAAGGPSVFLFPPKPKDTLMISRTPEVTCVVVDVSHEDPEVKFNWYVDGVEVHNAKTKPREEQYNSTYRVVSVLTVLHRDWLNGKEYKCKVSNKALPAPIEKTISKAKGQPREPQVYTLPPCREEMTKNQVSLWCLVKGFYPSDIAVEWESNGQPENNYKTTPPVLDSDGSFFLYSKLTVDKSRWQQGNVFSCSVLHEALKFHYTQKSLSLSPGK light: SIVMTQTPLSLSVTPGQPASISCKASQSVSSDVTWYLQKPGQSPQLLIYYVSEHYTGVPDRFSGSGYGTDFTLKISRVEAEDVGVYYCQQHHRFPLTFGQGTKLEIKRTVAAPSVFIFPPSDEQLKSGTASVVCLLNNFYPREAKVQWKVDNALQSGNSQESVTEQDSKDSTYSLSSTLTLSKADYEKHKVYACEVTHQGLSSPVTKSFNRGEC scFv: DIQLTQSPSSLSASVGDRVTITCRASKSVDSYGNSFMHWYQQKPGKAPKLLIYLASNLESGVPSRFSGSGSGTDFTLTISSLQPEDFATYYCQQNNEDPRTFGCGTKVEIKGGGGSGGGGSGGGGSGGGGSEVQLQESGPGLVKPSETLSLTCTVSGFSLNAYSVNWIRQPPGKCLEWLGMIWGDGKIVYNSALKSRLTISKDSSKNQVSLKLSSVTAADTAVYYCAGDGYYPYAMRNWGQGTTVTVSSEPKSSDKTHTCPPCPAPEAAGGPSVFLFPPKPKDTLMISRTPEVTCVVVDVSHEDPEVKFNWYVDGVEVHNAKTKPREEQYNSTYRVVSVLTVLHRDWLNGKEYKCKVSNKALPAPIEKTISKAKGQPREPQVCTLPPSREEMTKNQVSLSCAVKGFYPSDIAVEWESNGQPENNYKTTPPVLDSDGSFFLVSKLTVDKSRWQQGNVFSCSVLHEALKFHYTQKSLSLSPGK | 48.5 | 43.9 | – | – |
| AB_IL13_02_001_HL9 (antibody, human IgG1, kappa, L234A L235A) heavy: EVQLQESGPGLVKPSETLSLTCTVSGFSLNAYSVNWIRQPPGKGLEWLGMIWGDGKIVYNSALKSRLTISKDSSKNQVSLKLSSVTAADTAVYYCAGDGYYPYFMDNWGQGTTVTVSSASTKGPSVFPLAPSSKSTSGGTAALGCLVKDYFPEPVTVSWNSGALTSGVHTFPAVLQSSGLYSLSSVVTVPSSSLGTQTYICNVNHKPSNTKVDKKVEPKSCDKTHTCPPCPAPEAAGGPSVFLFPPKPKDTLMISRTPEVTCVVVDVSHEDPEVKFNWYVDGVEVHNAKTKPREEQYNSTYRVVSVLTVLHRDWLNGKEYKCKVSNKALPAPIEKTISKAKGQPREPQVYTLPPSRDELTKNQVSLTCLVKGFYPSDIAVEWESNGQPENNYKTTPPVLDSDGSFFLYSKLTVDKSRWQQGNVFSCSVLHEALKFHYTQKSLSLSPG light: DIQLTQSPSSLSASVGDRVTITCRASKSVDSYGNSFMHWYQQKPGKAPKLLIYLASNLESGVPSRFSGSGSGTDFTLTISSLQPEDFATYYCQQNNEDPRTFGGGTKVEIKRTVAAPSVFIFPPSDEQLKSGTASVVCLLNNFYPREAKVQWKVDNALQSGNSQESVTEQDSKDSTYSLSSTLTLSKADYEKHKVYACEVTHQGLSSPVTKSFNRGEC | 47.5 | 44.8 | – | – |
| AB_IL13_02_004_HL9 (antibody, human IgG1, kappa, L234A L235A) heavy: EVQLQESGPGLVKPSETLSLTCTVSGFSLNAYSVNWIRQPPGKGLEWLGMIWGDGKIVYNSALKSRLTISKDSSKNQVSLKLSSVTAADTAVYYCAGDGYYPYAMDGWGQGTTVTVSSASTKGPSVFPLAPSSKSTSGGTAALGCLVKDYFPEPVTVSWNSGALTSGVHTFPAVLQSSGLYSLSSVVTVPSSSLGTQTYICNVNHKPSNTKVDKKVEPKSCDKTHTCPPCPAPEAAGGPSVFLFPPKPKDTLMISRTPEVTCVVVDVSHEDPEVKFNWYVDGVEVHNAKTKPREEQYNSTYRVVSVLTVLHRDWLNGKEYKCKVSNKALPAPIEKTISKAKGQPREPQVYTLPPSRDELTKNQVSLTCLVKGFYPSDIAVEWESNGQPENNYKTTPPVLDSDGSFFLYSKLTVDKSRWQQGNVFSCSVLHEALKFHYTQKSLSLSPG light: DIQLTQSPSSLSASVGDRVTITCRASKSVDSYGNSFMHWYQQKPGKAPKLLIYLASNLESGVPSRFSGSGSGTDFTLTISSLQPEDFATYYCQQNNEDPRTFGGGTKVEIKRTVAAPSVFIFPPSDEQLKSGTASVVCLLNNFYPREAKVQWKVDNALQSGNSQESVTEQDSKDSTYSLSSTLTLSKADYEKHKVYACEVTHQGLSSPVTKSFNRGEC | 45.9 | 46.4 | – | – |
| AB_TL1A_02_004_HL1 (antibody, human IgG1, kappa) heavy: QVQLVQSGAEVKKPGASVKVSCKASGYDFTYYGISWVRQAPGQGLEWMGWISPYNGNTHYAQKLQGRVTMTTDTSTRTAYMELRSLRSDDTAVYYCARENYYGSGAYRGGMDVWGQGTTVTVSSASTKGPSVFPLAPSSKSTSGGTAALGCLVKDYFPEPVTVSWNSGALTSGVHTFPAVLQSSGLYSLSSVVTVPSSSLGTQTYICNVNHKPSNTKVDKKVEPKSCDKTHTCPPCPAPEAAGAPSVFLFPPKPKDTLYITREPEVTCVVVDVSHEDPEVKFNWYVDGVEVHNAKTKPREEQYNSTYRVVSVLTVLHQDWLNGKEYKCKVSNKALPAPIEKTISKAKGQPREPQVYTLPPSREEMTKNQVSLTCLVKGFYPSDIAVEWESNGQPENNYKTTPPVLDSDGSFFLYSKLTVDKSRWQQGNVFSCSVMHEALHNHYTQKSLSLSPG light: not shown | 9.8 | 218 | – | – |
| AB_TL1A_02_004_HL3 (antibody, human IgG1, kappa, built from the name and the HLE mutation column) heavy: QVQLVQSGAEVKKPGASVKVSCKASGYDFTYYGISWVRQAPGQGLEWMGWISPYNGNTHYAQKLQGRVTMTTDTSTRTAYMELRSLRSDDTAVYYCARENYYGSGAYRGGMDVWGQGTTVTVSSASTKGPSVFPLAPSSKSTSGGTAALGCLVKDYFPEPVTVSWNSGALTSGVHTFPAVLQSSGLYSLSSVVTVPSSSLGTQTYICNVNHKPSNTKVDKKVEPKSCDKTHTCPPCPAPEAAGAPSVFLFPPKPKDTLMISRTPEVTCVVVDVSHEDPEVKFNWYVDGVEVHNAKTKPREEQYNSTYRVVSVLTVLHRDWLNGKEYKCKVSNKALPAPIEKTISKAKGQPREPQVYTLPPSREEMTKNQVSLTCLVKGFYPSDIAVEWESNGQPENNYKTTPPVLDSDGSFFLYSKLTVDKSRWQQGNVFSCSVLHEALHNHYTQKSLSLSPG light: not shown | – | – | 5.3 | 461 |
